According to patent US20140113872A1 (INSTITUT NATIONAL DE LA RECHERCHE SCIENTIFIQUE, published 2014):
Numbered stars: 1 amine (or outer) side, 2 acyl side, 3 side chain; on linkers, the order of the positions; unused ones are H or OH. Bridge positions count the residues as written; N and C are the ends. Square brackets hold non-standard residues; d marks the D form. Ends that are not written are not given here. dTiq = D-1,2,3,4-tetrahydroisoquinoline-1-carboxylic acid, O=C([C@H]1c2ccccc2CCN1[*:1])[*:2]; Bip = N[C@@H](Cc1ccc(-c2ccccc2)cc1)C(=O)O; Dip = N[C@H](C(=O)O)C(c1ccccc1)c1ccccc1; Phe(4-I) = N[C@@H](Cc1ccc(I)cc1)C(=O)O; 1Nal = N[C@@H](Cc1cccc2ccccc12)C(=O)O; d1Nal = N[C@H](Cc1cccc2ccccc12)C(=O)O; Tiq1c(1S) = O=C(O)[C@H]1NCCc2ccccc21; Tic = O=C(O)[C@@H]1Cc2ccccc2CN1; dTic = O=C(O)[C@H]1Cc2ccccc2CN1; Cha = N[C@@H](CC1CCCCC1)C(=O)O; dPhg = N[C@@H](C(=O)O)c1ccccc1; dTle = CC(C)(C)[C@@H](N)C(=O)O; Phg = N[C@H](C(=O)O)c1ccccc1; dAia = not defined here

B1: urotensin II-related peptide (URP) (peptide)
peptide: H-ACFWKYCV-OH
modifications: disulfide 2-7
SMILES: CC(C)[C@H](NC(=O)[C@@H]1CSSC[C@H](NC(=O)[C@H](C)N)C(=O)N[C@@H](Cc2ccccc2)C(=O)N[C@@H](Cc2c[nH]c3ccccc23)C(=O)N[C@@H](CCCCN)C(=O)N[C@@H](Cc2ccc(O)cc2)C(=O)N1)C(=O)O
B2: [Phe(I)^4]URP (peptide)
peptide: H-ACF[Phe(4-I)]KYCV-OH
modifications: disulfide 2-7
notes: H-Ala-Cys-Phe-Phe(I)-Lys-Tyr-Cys-Val-OH; also called compound 5; [para-iodo-Phe^4]URP
B3: [Phg^4]URP (peptide)
peptide: H-ACF[Phg]KYCV-OH
modifications: disulfide 2-7
notes: H-Ala-Cys-Phe-Phg-Lys-Tyr-Cys-Val-OH; also called compound 14
B4: [Tiq^4]URP (peptide)
peptide: H-ACF[Tiq1c(1S)]KYCV-OH
modifications: disulfide 2-7
notes: H-Ala-Cys-Phe-Tiq-Lys-Tyr-Cys-Val-OH; also called compound 16
B5: [1-Nal^4]URP (peptide)
peptide: H-ACF[1Nal]KYCV-OH
modifications: disulfide 2-7
notes: H-Ala-Cys-Phe-Nal-Lys-Tyr-Cys-Val-OH; also called compound 3
B6: [D-Aia^4]URP (peptide)
peptide: ACF[dAia]KYCV
modifications: disulfide 2-7; not fully specified (bridges); reading uncertain; also: D-Aia indole ring bonded to Lys5 backbone N
notes: also called compound 13
B7: ^125I-URP (peptide)
peptide: H-ACFWKYCV-OH
modifications: disulfide 2-7; also: 125I-labelled, site not given here
notes: used at 0.2 nM; also called radiolabeled URP
B8: [Pen^2, Tiq^4]URP (peptide)
peptide: AXFXKYCV
modifications: position 2 is beta,beta-dimethyl-cysteine (Pen); position 4 is Tiq; cyclic (Pen2-Cys7 disulfide)
notes: H-Ala-Pen-Phe-Tiq-Lys-Tyr-Cys-Val-OH; also called compound 20

These molecules were tested against T1, UT receptor present in rat aortic ring (rat, UniProt P49684 1-386) (assay: cell-based or functional assay).
T1 sequence (looked up): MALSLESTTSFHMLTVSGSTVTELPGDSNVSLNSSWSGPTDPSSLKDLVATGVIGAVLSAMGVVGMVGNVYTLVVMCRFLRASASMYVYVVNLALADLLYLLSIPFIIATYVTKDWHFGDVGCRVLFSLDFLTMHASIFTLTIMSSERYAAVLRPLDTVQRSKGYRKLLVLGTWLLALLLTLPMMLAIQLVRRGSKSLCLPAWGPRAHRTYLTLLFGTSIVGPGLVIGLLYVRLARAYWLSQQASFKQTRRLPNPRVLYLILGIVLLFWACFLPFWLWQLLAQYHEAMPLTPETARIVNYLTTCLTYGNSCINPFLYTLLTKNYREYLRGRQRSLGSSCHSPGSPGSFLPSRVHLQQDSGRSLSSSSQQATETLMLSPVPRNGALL

| Molecule | URP pEC50, rat aortic ring pre-treated with 10^-6 M [Bip^4]URP | pIC50, reversal of contractile tone established in rat isolated aorta with 4 nM hUII |
| --- | --- | --- |
| B1 | 7.74 |  |
| H-ACF[Bip]KYCV-OH (disulfide 2-7) [[Bip^4]URP] |  | 7.72 |

Target: T1, UT receptor present in rat aortic ring
Test: cell-based or functional assay
Remark: another data set of the same source

| Molecule | Aortic Ring contraction Emax (%) | Aortic Ring contraction EC50 [nM] | Aortic Ring contraction pEC50 | Aortic Ring contraction Emax (%), maximum efficacy at 10^-5.5 M |
| --- | --- | --- | --- | --- |
| ACF[dTiq]KYCV (disulfide 2-7, also called compound 17) [[D-Tiq^4]URP] | 113 % of KCl (40 mM) contraction |  |  |  |
| B1 | 100 % of KCl (40 mM) contraction | 7 | 8.09 |  |
| ACF[dTic]KYCV (disulfide 2-7) [[D-Tic^4]URP] | 128 % of KCl (40 mM) contraction |  |  |  |
| ACF[Tic]KYCV-OH (disulfide 2-7) [[Tic^4]URP] |  |  |  | 43 % of KCl (40 mM) contraction |
| H-ETPDCFWKYCV-OH (disulfide 5-10) [human urotensin II (hUII)] | 117 % of KCl (40 mM) contraction | 1 | 9.08 |  |
| B2 |  |  |  | 92 % of KCl (40 mM) contraction |
| ACF[dTle]KYCV-OH (disulfide 2-7, also called compound 8) [[D-Tbg^4]URP] | 99 % of KCl (40 mM) contraction |  |  |  |
| B3 | 102 % of KCl (40 mM) contraction |  |  |  |
| H-ACF[Dip]KYCV-OH (disulfide 2-7) [[Dip^4]URP] |  |  |  | 23 % of KCl (40 mM) contraction |
| B4 | 126 % of KCl (40 mM) contraction |  |  |  |
| B5 | 86 % of KCl (40 mM) contraction |  |  |  |
| H-ACF[Cha]KYCV-OH (disulfide 2-7) [[Cha^4]URP] |  |  |  | 77 % of KCl (40 mM) contraction |
| B6 | 148 % of KCl (40 mM) contraction |  |  |  |
| H-ACF[dPhg]KYCV-OH (disulfide 2-7, also called compound 15) [[D-Phg^4]URP] | 116 % of KCl (40 mM) contraction |  |  |  |
| ACF[d1Nal]KYCV (disulfide 2-7, also called compound 4; [D-Nal^4]URP) [[D-1-Nal^4]URP] |  |  |  | 34 % of KCl (40 mM) contraction |

Target: T1, UT receptor present in rat aortic ring
Test: cell-based or functional assay
Remark: another data set of the same source

| Molecule | hUII pEC50, rat isolated aorta pre-treated with 0.3 µM [Bip^4]URP | hUII pEC50, rat isolated aorta pre-treated with 1 µM [Bip^4]URP | hUII pEC50, rat isolated aorta pre-treated with 3 µM [Bip^4]URP | hUII pEC50, rat isolated aorta, vehicle |
| --- | --- | --- | --- | --- |
| H-ETPDCFWKYCV-OH (disulfide 5-10) [human urotensin II (hUII)] | 8.31 | 7.6 | 7.55 | 8.98 |

What follows are molecules tested against T2, human urotensin II receptor (UT) (human, UniProt Q9UKP6 1-389) (assay: displacement of 0.2 nM 125I-hUII from CHO cells expressing human UT).
T2 construct: whole, on cells; also called hUT; hGPR14
T2 sequence (looked up): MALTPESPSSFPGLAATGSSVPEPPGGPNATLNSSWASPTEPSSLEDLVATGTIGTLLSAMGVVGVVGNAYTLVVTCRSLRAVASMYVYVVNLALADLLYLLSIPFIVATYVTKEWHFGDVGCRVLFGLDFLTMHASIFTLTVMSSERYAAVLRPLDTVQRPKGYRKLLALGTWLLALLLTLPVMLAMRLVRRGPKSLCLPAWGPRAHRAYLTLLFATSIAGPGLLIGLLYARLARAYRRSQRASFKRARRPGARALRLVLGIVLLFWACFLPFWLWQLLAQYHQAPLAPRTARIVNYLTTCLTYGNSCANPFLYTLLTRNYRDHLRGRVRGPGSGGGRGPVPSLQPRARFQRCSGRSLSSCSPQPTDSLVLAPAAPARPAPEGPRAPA

| Molecule | pEC50 |
| --- | --- |
| [Tbg^4]URP (peptide) | < 5 |
| ACF[Tic]KYCV-OH (disulfide 2-7) [[Tic^4]URP] | < 5 |

Target: T2, human urotensin II receptor (UT)
Test: as above
Remark: another data set of the same source
Experimental: Cell Culture and Binding Experiments: Transfected CHO cells expressing the human urotensin receptor (CHO-UT) were maintained in Ham-F12 medium with 10% fetal bovine serum (FBS), 2 mM L-glutamine, 100 Ul/mL each of penicillin and streptomycin, and 400 μg/mL G418. […] Binding assays were following known literature procedures using CHO cells stably transfected with hGPR14. […] After 90 min of incubation at room temperature, cells were washed, lysed, and the cell-bound radioactivity was quantified using a γ-counter. […] The cells were then washed, lysed, and the radioactivity counted on a γ-counter (1470 Automatic Gamma Counter, Perkin Elmer).

| Molecule | IC50 [nM] |
| --- | --- |
| ACF[dTiq]KYCV (disulfide 2-7, also called compound 17) [[D-Tiq^4]URP] | 21 |
| B2 | 58 |
| ACF[dTle]KYCV-OH (disulfide 2-7, also called compound 8) [[D-Tbg^4]URP] | > 1000 |
| B3 | 29 |
| B4 | 10 |
| B5 | 17 |
| B6 | 60 |
| H-ACF[dPhg]KYCV-OH (disulfide 2-7, also called compound 15) [[D-Phg^4]URP] | 29 |
| ACF[d1Nal]KYCV (disulfide 2-7, also called compound 4; [D-Nal^4]URP) [[D-1-Nal^4]URP] | 46 |

What follows are molecules tested against T2, human urotensin II receptor (UT) (assay: dissociation from living CHO-UT cells started with 10^-6 M URP alone).
Experimental: (§1) Binding assays were following known literature procedures using CHO cells stably transfected with hGPR14. […] After 90 min of incubation at room temperature, cells were washed, lysed, and the cell-bound radioactivity was quantified using a γ-counter. […] The cells were then washed, lysed, and the radioactivity counted on a γ-counter (1470 Automatic Gamma Counter, Perkin Elmer).

| Molecule | half-life (t1/2) [min] |
| --- | --- |
| B7 | 13.1 |

Target: T2, human urotensin II receptor (UT)
Test: displacement of 0.2 nM 125I-hUII from CHO cells expressing human UT
Remark: another data set of the same source

| Molecule | pEC50 |
| --- | --- |
| ACF[dTiq]KYCV (disulfide 2-7, also called compound 17) [[D-Tiq^4]URP] | 7.68 |
| B2 | 7.24 |
| B3 | 7.53 |
| B8 | < 5 |
| B5 | 7.77 |
| B6 | 7.22 |
| H-ACF[dPhg]KYCV-OH (disulfide 2-7, also called compound 15) [[D-Phg^4]URP] | 7.56 |
| ACF[d1Nal]KYCV (disulfide 2-7, also called compound 4; [D-Nal^4]URP) [[D-1-Nal^4]URP] | 7.33 |

The molecules below were run against T2, human urotensin II receptor (UT) (assay: dissociation from living CHO-UT cells started with 10^-6 M URP + 10^-6 M urocontrin ([Bip^4]URP)).
Experimental: as §1

| Molecule | half-life (t1/2) [min] |
| --- | --- |
| B7 | 12.1 |
